Blank lines part the entries; values can stand above or below the binder they belong to.
Legend:
[1] = biological target: FLAG-AP-DHX15 LML triple mutant L536A/M537A/L540A (human, UniProt O43143 1-795, L536A | M537A | L540A); experiment: proximity labelling
FLAG-AP-DHX15 R222G = FLAG-AP-DHX15 R222G (human, UniProt O43143 1-795, R222G); experiment: proximity labelling
FLAG-AP-DHX15 R222G, sequence (O43143 whole entry R222G): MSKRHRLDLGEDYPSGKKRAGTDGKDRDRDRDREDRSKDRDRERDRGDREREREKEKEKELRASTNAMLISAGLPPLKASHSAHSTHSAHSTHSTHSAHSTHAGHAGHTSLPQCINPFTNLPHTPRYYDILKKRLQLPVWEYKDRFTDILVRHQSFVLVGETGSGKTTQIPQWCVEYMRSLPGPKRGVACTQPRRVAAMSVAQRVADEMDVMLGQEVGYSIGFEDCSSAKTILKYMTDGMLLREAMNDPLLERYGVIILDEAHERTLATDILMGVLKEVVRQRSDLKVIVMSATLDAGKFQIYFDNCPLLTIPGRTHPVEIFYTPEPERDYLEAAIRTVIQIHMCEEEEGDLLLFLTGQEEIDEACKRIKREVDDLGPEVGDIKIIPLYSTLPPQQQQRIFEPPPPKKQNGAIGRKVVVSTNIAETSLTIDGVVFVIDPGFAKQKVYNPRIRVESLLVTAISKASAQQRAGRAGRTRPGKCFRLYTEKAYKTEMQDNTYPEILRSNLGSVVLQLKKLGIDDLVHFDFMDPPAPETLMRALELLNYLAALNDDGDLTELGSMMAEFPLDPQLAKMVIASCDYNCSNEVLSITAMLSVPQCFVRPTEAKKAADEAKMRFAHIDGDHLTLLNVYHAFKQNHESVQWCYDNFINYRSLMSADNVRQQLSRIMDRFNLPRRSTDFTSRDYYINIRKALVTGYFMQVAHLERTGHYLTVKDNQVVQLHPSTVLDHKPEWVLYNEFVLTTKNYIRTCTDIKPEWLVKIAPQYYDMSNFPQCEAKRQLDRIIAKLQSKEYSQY

FLAG-AP-DHX15 LML triple mutant L536A/M537A/L540A, sequence (O43143 whole entry L536A/M537A/L540A): as the sequence (O43143 whole entry R222G) above, with G222R, L536A, M537A, L540A counted along it

level in the streptavidin pull-down (percent) [1]: 47%
level in the streptavidin pull-down (percent) (FLAG-AP-DHX15 R222G): 80%
B1: U2AF2 (natural protein, human (endogenous in HEK293T.A2), UniProt P26368 1-475, looked up)
chain: MSDFDEFERQLNENKQERDKENRHRKRSHSRSRSRDRKRRSRSRDRRNRDQRSASRDRRRRSKPLTRGAKEEHGGLIRSPRHEKKKKVRKYWDVPPPGFEHITPMQYKAMQAAGQIPATALLPTMTPDGLAVTPTPVPVVGSQMTRQARRLYVGNIPFGITEEAMMDFFNAQMRLGGLTQAPGNPVLAVQINQDKNFAFLEFRSVDETTQAMAFDGIIFQGQSLKIRRPHDYQPLPGMSENPSVYVPGVVSTVVPDSAHKLFIGGLPNYLNDDQVKELLTSFGPLKAFNLVKDSATGLSKGYAFCEYVDINVTDQAIAGLNGMQLGDKKLLVQRASVGAKNATLVSPPSTINQTPVTLQVPGLMSSQVQMGGHPTEVLCLMNMVLPEELLDDEEYEEIVEDVRDECSKYGLVKSIEIPRPVDGVEVPGCGKIFVEFTSVFDCQKAMQGLTGRKFANRVVVTKYCDPDSYHRRDFW

level in the streptavidin pull-down (percent) [1]: 36%
level in the streptavidin pull-down (percent) (FLAG-AP-DHX15 R222G): 76%
B2: SF3B1 (natural protein, human (endogenous in HEK293T.A2), UniProt O75533 1-1304, looked up)
chain: MAKIAKTHEDIEAQIREIQGKKAALDEAQGVGLDSTGYYDQEIYGGSDSRFAGYVTSIAATELEDDDDDYSSSTSLLGQKKPGYHAPVALLNDIPQSTEQYDPFAEHRPPKIADREDEYKKHRRTMIISPERLDPFADGGKTPDPKMNARTYMDVMREQHLTKEEREIRQQLAEKAKAGELKVVNGAAASQPPSKRKRRWDQTADQTPGATPKKLSSWDQAETPGHTPSLRWDETPGRAKGSETPGATPGSKIWDPTPSHTPAGAATPGRGDTPGHATPGHGGATSSARKNRWDETPKTERDTPGHGSGWAETPRTDRGGDSIGETPTPGASKRKSRWDETPASQMGGSTPVLTPGKTPIGTPAMNMATPTPGHIMSMTPEQLQAWRWEREIDERNRPLSDEELDAMFPEGYKVLPPPAGYVPIRTPARKLTATPTPLGGMTGFHMQTEDRTMKSVNDQPSGNLPFLKPDDIQYFDKLLVDVDESTLSPEEQKERKIMKLLLKIKNGTPPMRKAALRQITDKAREFGAGPLFNQILPLLMSPTLEDQERHLLVKVIDRILYKLDDLVRPYVHKILVVIEPLLIDEDYYARVEGREIISNLAKAAGLATMISTMRPDIDNMDEYVRNTTARAFAVVASALGIPSLLPFLKAVCKSKKSWQARHTGIKIVQQIAILMGCAILPHLRSLVEIIEHGLVDEQQKVRTISALAIAALAEAATPYGIESFDSVLKPLWKGIRQHRGKGLAAFLKAIGYLIPLMDAEYANYYTREVMLILIREFQSPDEEMKKIVLKVVKQCCGTDGVEANYIKTEILPPFFKHFWQHRMALDRRNYRQLVDTTVELANKVGAAEIISRIVDDLKDEAEQYRKMVMETIEKIMGNLGAADIDHKLEEQLIDGILYAFQEQTTEDSVMLNGFGTVVNALGKRVKPYLPQICGTVLWRLNNKSAKVRQQAADLISRTAVVMKTCQEEKLMGHLGVVLYEYLGEEYPEVLGSILGALKAIVNVIGMHKMTPPIKDLLPRLTPILKNRHEKVQENCIDLVGRIADRGAEYVSAREWMRICFELLELLKAHKKAIRRATVNTFGYIAKAIGPHDVLATLLNNLKVQERQNRVCTTVAIAIVAETCSPFTVLPALMNEYRVPELNVQNGVLKSLSFLFEYIGEMGKDYIYAVTPLLEDALMDRDLVHRQTASAVVQHMSLGVYGFGCEDSLNHLLNYVWPNVFETSPHVIQAVMGALEGLRVAIGPCRMLQYCLQGLFHPARKVRDVYWKIYNSIYIGSQDALIAHYPRIYNDDKNTYIRYELDYIL

Source: article PMC10842378 (Cell reports, 2023)
